Assays:
[1] = substrate: CC1(C)CNC2=NC(N)=NC(=O)C2=N1; assay: Quinoid dihydropterin as substrate for dihydropteridine reductase (sheep liver); assay type: biochemical
Experimental: The quinoid was generated from 6,6-Me₂PH₄, as outlined previously. […] Peroxidase (6 units/ml final volume) was temperature equilibrated in 0.1 M Tris·HCl, pH 7.4, at 27° for 5 minutes. H₂O₂ (1.2 mM final concentration) was then added, followed by 6,6-Me₂PH₄. Conversion to q-6,6-Me₂PH₂, monitored at 340 nm, was complete within a few seconds. • (iii) Generation by phenylalanine hydroxylase: […] At 5 minutes, 6,6-Me₂PH₄ was introduced and monitored at 340 nm. Conversion of 6,6-Me₂PH₄ to quinoid dihydropterin was complete in 1-7 minutes, depending on the concentration. […] Reaction was then initiated with dihydropteridine reductase (0.01 units/ml). Rates were calculated from the enzyme dependent decrease in O.D. at 340 nm, using an extinction coefficient of 9.8 for the chemically synthesized substrate and 6.2 for the peroxidase- and phenylalanine-hydroxylase-containing reactions in which the pterin is maintained in the quinoid form. […] This Km was obtained regardless of the method of generation of the quinoid dihydropterin. The Vmax's were also the same for the dihydropteridine reductase catalyzed reduction of quinoid generated by any of the three methods (Table VI). Thus, the quinoid products of each procedure appear to behave equally.

[2] = substrate: CC1CNc2nc(N)[nH]c(=O)c2N1; assay: Phenylalanine hydroxylase cofactor assay (cofactor consumption and tyrosine formation); assay type: biochemical, Rat; conditions: other: 1 mM phenylalanine, atmospheric oxygen, 0.1 M Tris·HCl, pH 7.4, 27°C
Experimental: (§1) The 6,6-dimethyl substituted tetrahydropterin was tested for cofactor activity in a standard phenylalanine hydroxylase assay in which both cofactor consumption and tyrosine formation were monitored. […] An apparent Michaelis constant was determined at 1 mM phenylalanine and atmospheric oxygen with concentrations of 6,6-Me₂PH₄ ranging from 0.02-0.3 mM. The effect of a second methyl at the 6-position slightly increases the affinity for phenylalanine hydroxylase, since the apparent Km was two-thirds to three-quarters that of 6-methyl and 6,7-dimethyltetrahydropterin (Table IV). […] The maximum velocity of the reaction with 6,6-Me₂PH₄ is similar to that with the 6,7-dimethyl compound and about 6 times slower than with the natural cofactor (Table IV).

[3] = substrate: CC1(C)CNc2nc(N)[nH]c(=O)c2N1; assay: as above; assay type: biochemical, Rat; conditions: other: 1 mM phenylalanine, atmospheric oxygen, 0.1 M Tris·HCl, pH 7.4, 27°C
Experimental: as §1

[4] = substrate: CC1(C)CNC2=NC(N)=NC(=O)C2=N1; assay: Quinoid dihydropterin as substrate for dihydropteridine reductase (beef liver); assay type: biochemical
Experimental: Substrate Properties of Quinoid-6,6-dimethyldihydropterin for Dihydropteridine Reductase: 6,6-Dimethyltetrahydropterin was oxidized by three different procedures to produce q-6,6-Me₂PH₂ to be tested as a substrate for dihydropteridine reductase. • (i) Chemical synthesis. […] The q-6,6-Me₂PH₂ was dissolved in 0.1 M Tris·HCl, pH 7.4 immediately before use to make a 10 mM stock solution, which was kept on ice. To test for substrate activity a small volume (<50 µl) was added to a cuvette containing 0.1 M Tris·HCl, pH 7.4, which had been temperature equilibrated to 27°, and the absorbance at 340 nm was measured. • (ii) Oxidation by peroxidase and H₂O₂. Peroxidase (6 units/ml final volume) was temperature equilibrated in 0.1 M Tris·HCl, pH 7.4, at 27° for 5 minutes. H₂O₂ (1.2 mM final concentration) was then added, followed by 6,6-Me₂PH₄. Conversion to q-6,6-Me₂PH₂, monitored at 340 nm, was complete within a few seconds. • (iii) Generation by phenylalanine hydroxylase: Phenylalanine hydroxylase (0.6 units/ml), catalase (2500 units/ml), and phenylalanine (3 mM final concentration) were temperature equilibrated at 27° in 0.1 M Tris·HCl, pH 7.4. At 5 minutes, 6,6-Me₂PH₄ was introduced and monitored at 340 nm. Conversion of 6,6-Me₂PH₄ to quinoid dihydropterin was complete in 1-7 minutes, depending on the concentration. To each of the above solutions containing q-6,6-Me₂PH₂, NADH (final concentration 0.1 mM) as added, and the background rate recorded for 1 minute. Reaction was then initiated with dihydropteridine reductase (0.01 units/ml). Rates were calculated from the enzyme dependent decrease in O.D. at 340 nm, using an extinction coefficient of 9.8 for the chemically synthesized substrate and 6.2 for the peroxidase- and phenylalanine-hydroxylase-containing reactions in which the pterin is maintained in the quinoid form. Due to the high concentrations of q-6,6-Me₂PH₂ required to obtain an accurate Km, cuvettes of 0.5 cm light path were used.

[5] = substrate: CC1(c2ccccc2)CNC2=NC(N)=NC(=O)C2=N1; assay: as above; assay type: biochemical; conditions: other: substrate produced by Peroxidase + H2O2; pH 7.4; 27.0 °C
[6] = substrate: CC1=Nc2c(O)nc(N)nc2NC1; assay: as above; assay type: biochemical; conditions: other: substrate produced by Peroxidase + H2O2; pH 7.4; 27.0 °C
[7] = other: substrate produced by Bromine oxidation, 0.1 M Tris·HCl, pH 7.4, 27°C
[8] = other: substrate produced by Phe hydroxylase + phe, pH 7.4, 27.0 °C

B1: Sheep Liver Dihydropteridine Reductase (Ovis aries) (protein)
chain: WVASIDVQENEEASANVVVKMTDSFTEQADQVTAEVGELLGTEKVDAILCVAGGWAGGNAKSKSLFKNCDLMWKQSVWTSTISSHLATKHLKEGGLLTLAGARAALDGTPGMIGYGMAKAAVHQLCRSLAGKNSGLPPGAAAVALLPVTLDTPVNRKSMPEADFSSWTPLEFLVETFHDWITEKNRPSSGSLIQVVTTEGKTELTTASL
Km [1, 7]: 0.4 mM | Km [1, 8]: 0.4 mM

B2: Rat Liver Phenylalanine Hydroxylase (Rattus norvegicus) (protein)
chain: MAAVVLENGVLSRKLSDFGQETSYIEDNSNQNGAISLIFSLKEEVGALAKVLRLFEENDINLTHIESRPSRLNKDEYEFFTYLDKRTKPVLGSIIKSLRNDIGATVHELSRDKEKNTVPWFPRTIQELDRFANQILSYGAELDADHPGFKDPVYRARRKQFADIAYNYRHGQPIPRVEYTEEEKQTWGTVFRTLKALYKTHACYEHNHIFPLLEKYCGFREDNIPQLEDVSQFLQTCTGFRLRPVAGLLSSRDFLGGLAFRVFHCTQYIRHGSKPMYTPEPDICHELLGHVPLFSDRSFAQFSQEIGLASLGAPDEYIEKLATIYWFTVEFGLCKEGDSIKAYGAGLLSSFGELQYCLSDKPKLLPLELEKTACQEYSVTEFQPLYYVAESFSDAKEKVRTFAATIPRPFSVRYDPYTQRVEVLDNTQQLKILADSINSEVGILCNALQKIKS
notes: Cofactor for Rat Liver Phenylalanine Hydroxylase; from tissue; host or cells: rat liver
Km [2]: 0.1 ± 0.02 mM | Km [3]: 0.066 ± 0.01 mM

B3: Beef Liver Dihydropteridine Reductase (Bos taurus) (protein)
chain: MAAAAGEARRVLVYGGRGALGSRCVQAFRARNWWVASIDVQENEEASANVVVKMTDSFTEQADQVTAEVGKLLGTEKVDAILCVAGGWAGGNAKSKSLFKNCDLMWKQSVWTSTISSHLATKHLKEGGLLTLAGARAALDGTPGMIGYGMAKAAVHQLCQSLAGKSSGLPPGAAAVALLPVTLDTPVNRKSMPEADFSSWTPLEFLVETFHDWITEKNRPSSGSLIQVVTTEGKTELTAASP
notes: from tissue; host or cells: beef liver
Km [4, 7]: 0.4 mM | Km ([4]; other: substrate produced by Peroxidase + H2O2, pH 7.4, 27.0 °C): 0.4 mM | Km [4, 8]: 0.4 mM | Km [5]: 0.07 mM | Km [6]: 0.03 mM

Source: patent EP0138995B1, “REGULATION OF ENZYMES WHICH UTILIZE TETRAHYDROBIOPTERIN OR TETRAHYDROFOLATE COFACTORS WITH 6, 6-DISUBSTITUTED-TETRAHYDROPTERIDINES” (South Alabama Medical Science Foundation, priority 1983, dated 1984)
